From patent publication US20250276081A1, “Mucin-Active Proteases and Methods of Use” (priority 2022, published 2025)

Legend:
[1] = target: T1, cell surface MUC1 on HeLa cells (Homo sapiens, UniProt P15941); test: In cellulo MUC1 cleavage activity assay; type: cell-based
T1 construct: subjected to flow cytometry for cell surface MUC1; endogenous in cells; host or cells: HeLa
Protocol: Combinations of domain deletions and single point mutations yielded a total of eleven mutants for characterization, with expression yields ranging from 20-100 mg/L (Methods and FIG. 15B). In vitro activity against recombinant mucin substrates was quantified by densitometry following SDS-PAGE (FIG. 2b-c and FIG. 15C). […] To determine effective dissociation constants (Kd) of the mutants, cells were treated with the same concentrations of enzymes for 30 mins at 4° C. in the presence of the metal chelator and metalloprotease inhibitor EDTA, to prevent enzyme activity. In the latter case, binding was quantified via interaction of an anti-His tag antibody with the His-tagged mutants (FIG. 2d,g-h and FIG. 15f-g).
In cellulo MUC1 cleavage activity assay. Hela cells resuspended at 4.5-5.0×10^5 cells in 150 μL of complete media were allocated per well to a 96-well ultra-low attachment round bottom plate (Corning). 50 μL of the different StcE mutants in PBS were added to the wells, and the plate was incubated at 37° C. for 1 h. […] For data analysis, the Alexa Fluor 647 mean fluorescence intensity of unstained and PBS-treated samples were used to define 0% and 100% cell surface MUC1, respectively, and each sample was normalized to percent MUC1 within each replicate. […]

[2] = tested on: MCF10A cells expressing MUC1 ectodomain; test: MCF10A^MUC1 suspension survival assay; type: cell-based
Protocol: MCF10A^MUC1 suspension survival assay. MCF10A cells expressing a cytoplasmic truncation 5 of MUC1 (MUC1ΔCT, also referred to as MUC1 ectodomain) were used to limit any possible cytoplasmic signaling^1. MUC1ΔCT was induced with 200 ng/ml doxycycline for 24 h. Uninduced and induced cells were seeded at 3×10^5 cells/well in a 24-well ultra-low attachment plate (Corning) in 0.75 mL of complete media. 200 ng/mL doxycycline and 10 nM StcE were added as appropriate. The plate was incubated at 37° C., 5% CO2, 125 rpm. At t=0, 24, 48, and 72 h, cells were spun down at 350×g for 5 min, resuspended in 200 μL of phosphate-buffered saline (PBS) with 0.1% benzonase (Sigma-Aldrich), and incubated at room temperature for 15 min. Cells were then resuspended in 200 μL of enzyme-free cell dissociation buffer (Thermo Fisher Scientific) and stained with 100 nM Calcein AM (Thermo Fisher Scientific) and 5 nM Sytox Red Dead Cell Stain (Thermo Fisher Scientific) for 20 min at 4° C., prior to analysis using a BD Accuri C6 plus. Videos of MCF10A^MUC1 cells freshly seeded on standard tissue culture plates (Corning) and treated with and without 1 nM StcE were generated with images taken at 30 min intervals for 18 h using an Incucyte. The Incucyte was set to 37° C. and 5% CO2, and cells were incubated in complete media with 200 ng/ml doxycycline.

[3] = Complete blood count (CBC) after StcE injection; type: in vivo, mouse; conditions: 3 h, C57BL/6, n=1
Protocol: In vivo toxicity studies. 10-week-old C57BL/6 mice (bred in-house) were injected with PBS or StcE (0.15 mg/kg or 15 mg/kg) via intravenous injection. 9-week-old female BALB/cJ mice (Jackson Labs) were injected with PBS or 10 mg/kg αHER2-eStcE via intraperitoneal injection. Mice were submitted to the Animal Diagnostic Lab at Stanford University for necropsy and complete blood count (CBC) analyses 3 h post injection.

T1 sequence (P15941 24-1255): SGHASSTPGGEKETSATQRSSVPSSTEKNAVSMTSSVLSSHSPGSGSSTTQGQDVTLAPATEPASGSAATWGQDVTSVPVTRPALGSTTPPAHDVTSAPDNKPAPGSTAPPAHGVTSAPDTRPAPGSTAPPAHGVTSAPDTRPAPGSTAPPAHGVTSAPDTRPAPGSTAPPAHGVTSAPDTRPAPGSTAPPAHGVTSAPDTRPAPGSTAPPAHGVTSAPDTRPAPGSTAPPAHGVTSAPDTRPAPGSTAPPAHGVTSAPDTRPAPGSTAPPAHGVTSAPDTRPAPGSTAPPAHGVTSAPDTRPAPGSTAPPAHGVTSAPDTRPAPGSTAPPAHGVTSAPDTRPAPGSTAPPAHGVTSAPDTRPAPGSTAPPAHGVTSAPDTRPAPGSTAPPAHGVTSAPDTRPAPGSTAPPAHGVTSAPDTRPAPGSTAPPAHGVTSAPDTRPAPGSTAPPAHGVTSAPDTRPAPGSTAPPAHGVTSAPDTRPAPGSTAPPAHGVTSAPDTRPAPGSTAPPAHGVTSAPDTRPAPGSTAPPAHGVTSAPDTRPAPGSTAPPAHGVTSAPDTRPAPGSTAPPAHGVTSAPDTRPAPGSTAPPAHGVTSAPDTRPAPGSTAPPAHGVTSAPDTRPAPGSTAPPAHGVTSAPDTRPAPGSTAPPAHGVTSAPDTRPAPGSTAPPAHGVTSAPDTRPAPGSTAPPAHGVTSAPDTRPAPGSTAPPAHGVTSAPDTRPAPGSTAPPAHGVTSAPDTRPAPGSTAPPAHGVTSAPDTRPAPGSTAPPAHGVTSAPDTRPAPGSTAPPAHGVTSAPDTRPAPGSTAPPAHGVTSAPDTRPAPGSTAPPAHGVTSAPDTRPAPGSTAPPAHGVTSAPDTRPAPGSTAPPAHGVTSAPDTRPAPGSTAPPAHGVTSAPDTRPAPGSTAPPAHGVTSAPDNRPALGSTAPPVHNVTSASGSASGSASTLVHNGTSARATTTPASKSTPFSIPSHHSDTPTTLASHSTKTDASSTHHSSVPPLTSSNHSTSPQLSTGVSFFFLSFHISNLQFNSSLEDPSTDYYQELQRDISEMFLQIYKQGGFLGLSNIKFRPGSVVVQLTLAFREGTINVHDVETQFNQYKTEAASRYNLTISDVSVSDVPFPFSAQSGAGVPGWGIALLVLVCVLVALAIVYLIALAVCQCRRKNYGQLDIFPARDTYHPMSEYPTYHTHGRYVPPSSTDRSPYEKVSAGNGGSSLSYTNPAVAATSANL

With “StcE: secreted protease of C1 esterase inhibitor, zinc metalloprotease pan mucinase from E. coli O157:H7; SEQ ID NO:1” the “Concentration at which the enzyme is active” value [1] was “single digit nanomolar”, the “Viability of MUC1-overexpressing cells under anchorage-free conditions” value ([2]; 10 nM StcE, ultralow attachment plates, over 72 h) was “rapid cell death” and the “Toxicity to MUC1-expressing cells in standard tissue culture plates” value ([2]; nanomolar doses (1 nM StcE)) was “low toxicity”. For the same substance, the Basophil absolute ([3]; StcE 0.15 mg/kg I.V.) was 0, the Basophils ([3]; StcE 0.15 mg/kg I.V.) was 0% and the Eosinophil absolute ([3]; StcE 0.15 mg/kg I.V.) was 44. The Eosinophils ([3]; StcE 0.15 mg/kg I.V.) was 1%, the “Hematocrit (HCT)” value ([3]; StcE 0.15 mg/kg I.V.) was 45.5% and the “Hemoglobin (HGB)” value ([3]; StcE 0.15 mg/kg I.V.) was 14 gm/dL. For the same substance, the “Immature reticulocyte fraction (IRF)” value ([3]; StcE 0.15 mg/kg I.V.) was 54.9%, the “Low fluorescence reticulocytes (LFR)” value ([3]; StcE 0.15 mg/kg I.V.) was 45.1% and the Lymphocyte absolute ([3]; StcE 0.15 mg/kg I.V.) was 4085. The Lymphocytes ([3]; StcE 0.15 mg/kg I.V.) was 92%, the “MHC concentration (MCHC)” value ([3]; StcE 0.15 mg/kg I.V.) was 30.8 g/dL and the “Mean corpuscular hemoglobin (MCH)” value ([3]; StcE 0.15 mg/kg I.V.) was 14.3 pg. The “Mean corpuscular volume (MCV)” value ([3]; StcE 0.15 mg/kg I.V.) was 46.5 fL, the “Mean platelet volume (MPV)” value ([3]; StcE 0.15 mg/kg I.V.) was 7.3 fL and the “Medium fluorescence reticulocytes (MFR)” value ([3]; StcE 0.15 mg/kg I.V.) was 18.7%. The Monocyte absolute ([3]; StcE 0.15 mg/kg I.V.) was 133, the Monocytes ([3]; StcE 0.15 mg/kg I.V.) was 3% and the Neutrophil absolute ([3]; StcE 0.15 mg/kg I.V.) was 178. For the same substance, the Neutrophils ([3]; StcE 0.15 mg/kg I.V.) was 4%, the Platelet count ([3]; StcE 0.15 mg/kg I.V.) was 1345 K/μL and the “Platelet distribution width (PDW)” value ([3]; StcE 0.15 mg/kg I.V.) was 8.9 fL. The Platelet estimate ([3]; StcE 0.15 mg/kg I.V.) was “Adequate”, the “Platelet-large cell ratio (P-LCR)” value ([3]; StcE 0.15 mg/kg I.V.) was 8.7% and the RBC morphology ([3]; StcE 0.15 mg/kg I.V.) was “Normal”. The “Red blood cell (RBC)” value ([3]; StcE 0.15 mg/kg I.V.) was 9.78 M/μL, the “Red cell distribution width (RDW)” value ([3]; StcE 0.15 mg/kg I.V.) was 19.2% and the Reticulocyte absolute ([3]; StcE 0.15 mg/kg I.V.) was 442056 µL⁻¹. For the same substance, the Reticulocyte count ([3]; StcE 0.15 mg/kg I.V.) was 4.52%, the “White blood cell (WBC)” value ([3]; StcE 0.15 mg/kg I.V.) was 4.44 K/μL and the Basophil absolute ([3]; StcE 15 mg/kg I.V.) was 0. It also gave a Basophils ([3]; StcE 15 mg/kg I.V.) of 0%, an Eosinophil absolute ([3]; StcE 15 mg/kg I.V.) of 39 and an Eosinophils ([3]; StcE 15 mg/kg I.V.) of 1%. For the same substance, the “Hematocrit (HCT)” value ([3]; StcE 15 mg/kg I.V.) was 58.9%, the “Hemoglobin (HGB)” value ([3]; StcE 15 mg/kg I.V.) was 18.3 gm/dL and the “Immature reticulocyte fraction (IRF)” value ([3]; StcE 15 mg/kg I.V.) was 52.3%. For the same substance, the “Low fluorescence reticulocytes (LFR)” value ([3]; StcE 15 mg/kg I.V.) was 47.7%, the Lymphocyte absolute ([3]; StcE 15 mg/kg I.V.) was 1458 and the Lymphocytes ([3]; StcE 15 mg/kg I.V.) was 37%. For the same substance, the “MHC concentration (MCHC)” value ([3]; StcE 15 mg/kg I.V.) was 31.1 g/dL, the “Mean corpuscular hemoglobin (MCH)” value ([3]; StcE 15 mg/kg I.V.) was 14 pg and the “Mean corpuscular volume (MCV)” value ([3]; StcE 15 mg/kg I.V.) was 44.9 fL. For the same substance, the “Mean platelet volume (MPV)” value ([3]; StcE 15 mg/kg I.V.) was 6.8 fL, the “Medium fluorescence reticulocytes (MFR)” value ([3]; StcE 15 mg/kg I.V.) was 28% and the Monocyte absolute ([3]; StcE 15 mg/kg I.V.) was 315. The Monocytes ([3]; StcE 15 mg/kg I.V.) was 8%, the Neutrophil absolute ([3]; StcE 15 mg/kg I.V.) was 2128 and the Neutrophils ([3]; StcE 15 mg/kg I.V.) was 54%. For the same substance, the Platelet count ([3]; StcE 15 mg/kg I.V.) was 82 K/μL, the “Platelet distribution width (PDW)” value ([3]; StcE 15 mg/kg I.V.) was 7.2 fL and the Platelet estimate ([3]; StcE 15 mg/kg I.V.) was “Decreased”. For the same substance, the “Platelet-large cell ratio (P-LCR)” value ([3]; StcE 15 mg/kg I.V.) was 5.5%, the RBC morphology ([3]; StcE 15 mg/kg I.V.) was “Normal” and the “Red blood cell (RBC)” value ([3]; StcE 15 mg/kg I.V.) was 13.11 M/μL. For the same substance, the “Red cell distribution width (RDW)” value ([3]; StcE 15 mg/kg I.V.) was 22.2%, the Reticulocyte absolute ([3]; StcE 15 mg/kg I.V.) was 860016 µL⁻¹ and the Reticulocyte count ([3]; StcE 15 mg/kg I.V.) was 6.56%. For the same substance, the “White blood cell (WBC)” value ([3]; StcE 15 mg/kg I.V.) was 3.94 K/μL.
